Residue numbers refer to the chain shown, from its start. Names may count otherwise.

Common to all, as to format: biochemical
Series [1] can be described thus: GC-MS confirmation of 3-HP production and pH dependence of candidate enzymes (coupled reaction with YdfG). The conditions noted are these: 3-HP by GC-MS at pH 5.5, pH 6.0 and pH 6.8; 5 mM oxaloacetate; 37° C., at least 12 hours. The procedure:
Conformation of 3-HP production as well as assessment of the pH dependence of each candidate enzyme was performed as described above, except that coupled reactions with YdfG were evaluated for 3-HP production by GC-MS. Reaction conditions consisted of 50 mM PIPES pH 6.8, 2 mM thymidine pyrophosphate, 10 mM dithiothreitol, 4 mM magnesium chloride, 1 mM NADPH (EMD Bioscience), 0.075 mg/mL purified YdfG (Molecular Throughput), and 5 mM oxaloacetate (unless otherwise stated). All chemicals were obtained from Sigma-Aldrich unless otherwise stated. Reactions were performed at 0.6 mL volumes in triplicate and were initiated with the addition of 600 micrograms of purified protein. In addition, a negative control lacking protein was also performed with each set. Reactions were allowed to proceed at 37° C. for at least 12 hours. […] Soluble monomeric 3-HP is quantified using GC-MS after a single exaction with ethyl acetate from a reaction sample. […] A standard curve of known 3-HP concentrations is prepared at the beginning of the run and a known quantity of ketohexanoic acid (1 g/L) is added to both the standards and the samples to act as an internal standard for Quantitation, with tropic acid as an additional internal standard. […] 3-HP is quantified using a 3HP standard curve at the beginning of the run and the data are analyzed using HP Chemstation. […]

Series [2] can be described thus: GC-MS analysis of 3-HP produced in the spectrophotometric assay samples. The procedure:
A coupled assay was developed in order to biochemically assess the oxaloacetate alpha-decarboxylase activity of the candidate enzymes. The coupled assay used exogenously-added purified E. coli YdfG protein, which converts malonate semialdehyde to 3-HP with the concomitant conversion of NADPH to NADP^+ (FIG. 5). […] 3-HP is also detectable by standard analytical methods, for example HPLC and GS-MS. Assays were performed as 200 microliter reactions in a 96-well plate format using a Molecular Dynamics SpectraMax 384 microplate reader with SoftmaxPro software (Molecular Dynamics, Sunnyvale Calif.) to quantitate the rate of change in the 340 nm absorbance. […] The progress of each reaction was monitored for 20 minutes during which measurements were made every 20 seconds. […] Once the reaction time course was read and the slopes of each well were calculated, the specific activities over the negative control of each candidate protein were calculated. All values reported are the average specific activities measured in triplicate.
Activity of KGD was not measured by the spectrophotometric assay.
Conformation of 3-HP production as well as assessment of the pH dependence of each candidate enzyme was performed as described above, except that coupled reactions with YdfG were evaluated for 3-HP production by GC-MS. […]

The nature of series [3]: Coupled spectrophotometric assay of oxaloacetate alpha-decarboxylase activity (purified YdfG, NADPH absorbance at 340 nm). The note with it: for Average Specific Activity: oad variants versus native Oad in the spectrophotometric assay; for Fold Increase in oxaloacetate alpha-decarboxylase specific activity: relative to native (parent) Oad lacking mutations, in vitro. The procedure: A coupled assay was developed in order to biochemically assess the oxaloacetate alpha-decarboxylase activity of the candidate enzymes. The coupled assay used exogenously-added purified E. coli YdfG protein, which converts malonate semialdehyde to 3-HP with the concomitant conversion of NADPH to NADP^+ (FIG. 5). […] 3-HP is also detectable by standard analytical methods, for example HPLC and GS-MS. Assays were performed as 200 microliter reactions in a 96-well plate format using a Molecular Dynamics SpectraMax 384 microplate reader with SoftmaxPro software (Molecular Dynamics, Sunnyvale Calif.) to quantitate the rate of change in the 340 nm absorbance. All assays were conducted at 37° C., and the instrument was allowed to mix the plate for 1 second prior to each measurements. The progress of each reaction was monitored for 20 minutes during which measurements were made every 20 seconds. Reaction conditions consisted of 50 mM PIPES pH 6.8 (unless otherwise stated), 2 mM thymidine pyrophosphate, 10 mM dithiothreitol, 4 mM magnesium chloride, 1 mM NADPH (EMD Bioscience), 0.075 mg/mL purified YdfG (Molecular Throughput), and 5 mM oxaloacetate (unless otherwise stated). All chemicals were obtained from Sigma-Aldrich (St. Louis, Mo.) unless otherwise stated. Reactions were initiated with the addition of 10 microliters of concentrated purified protein to each reaction well. In addition, a negative control was performed with each experimental set to control for the rate of background NADPH oxidation. Once the reaction time course was read and the slopes of each well were calculated, the specific activities over the negative control of each candidate protein were calculated. All values reported are the average specific activities measured in triplicate.

B1: KGD: alpha-ketoglutarate decarboxylase (kgd) from Mycobacterium tuberculosis, penta-histidine tag, purified (protein, listed as Mycobacterium tuberculosis)
chain: MNLRGTAARRRHRATGDTLDARQLVRQQLRQLQTETRPGALVRWFLLDPKELFDIFVTIQGFTQTTTRQRRQLLQTHNCQIITVVFRLACRQFIIQLTGGQQNTANFIAVADTILVGRFLQDATEFNLGKILNLRNRRLVAQHGFRGKHDQRTLDAVQRVAAQQVKVIGRGARHRDRHATLSPQLQKALNARRRVVRALTLVAVWQQQNNVGQLTPFRFARADELVNDRLGTINKVAELRLPQHNRVWIANGITVLKTHSRVFRQRRIINQELTTGRAAVAVSRQQLQRGELLAGVTVDQHRMTLAKGATTRVLTAQTDQLALSNQAAQRQQLTKRPVNLTLIRHLTTLFQHRLNARVCRETVRQRQEGITDTCQQGFVNSGRQARWDHLVRLDALRRLDAVLLQFAHFVEHTLQLALVIAQRILRLFHADVATTDQSLGVGFTGATLGVHDVIDIRIGHRWIVTLIMTTTTIAQHVNNNVLFKALAEVNCQTRNPDTRFWIVAVHVEDWRTDHLRHIRAVLARTRVFRSGGEADLVVHNDVNRTTHTIARQICQIQRLRNNALTREGRITVQHQRNDGECTLAVGVNGTVVQQVLLRTHQTFQHWIDRFQMGRICRQGNLNIVIAKHLQIQTRRTQVVLDIAGTVSLGRVQIAFKLRKDLRIRFAHDVRQDIQATTVRHANDHFIQTMLGTLVNRRVHHWNNRFRTLQAKTLLAHILGLQEGFKRLRCVQFRQDVLLLSNGRFDVLRLDTLLQPLLLFRVQNVRVLNTDVTAVRVAQQTQHVTQLFVLSTRETVNLKDAVQVPQSQAMRQHLQIRMRTKARLIQAQRVGVRHQMAAVAIGRDQVHHTCVLVNDRVRIIGAPTHWQVRDAQLAEDLIPEAIRQQQFMNGTQEVTAFRTLNDTVVVGRSQGNQFANTQLSDAFLGRALELRRIFHRTDTDDSTLTWHQAWHRVHRANRARIRQRNRNASEVLGGQFTITSTTDDVLVRGNELREAHRLATFDTGHHQRALAIFTLQVNSQTQIGVRRSNRRRLTVHLRVVAIHIRELLNRLNQSITQQMGKADFTTTRAFQLIIDHDTIIDQQFRWHSTHRGRRRHFQRRAHVLHDSSRRTTQDSNFIAFGWRRHRGLGGQSRHDTVARCGRVGRFRRRLRSRRCRTLSDQRAGHTSRLSSRLGSRLRAIVHQKLMPAWVNGRRIITKFTIHTNTRRVLSHHGYISFLKNSISQRQGRHKIYSKCIINTDNIL
modifications: penta-histidine tag
notes: alpha-ketoglutarate decarboxylase (kgd) from Mycobacterium tuberculosis, penta-histidine tag, purified
Take B1: the “pH of optimal activity” value in series [1] amounted to 6.8. Moreover, the “Final [3HP]” value in series [2] (Beginning [OAA] 5 mM, pH 6.8) worked out at 0.004 ± 0.001 g/L. Besides, the “3-HP production confirmed by GC-MS” value in series [2] (in the presence of 5 mM oxaloacetate) is 3-HP was produced.

B2: Mutant Oad 1: variant of Leuconostoc mesenteroides oad with mutations N45T, R249L, D302G, V418A and L476Q (protein)
chain: MTDTLTFNTKHLLEALFESGIRHFIVSPGSRSTPIALLLAEYAEQTNEIKLFVDVDERSAGFFALGIAKTLLEPVVLLGTSGTAIAEYMPAVAEAYAANIPLVVLSTDRPQELQFNGAPQTIPQSNLFGQLTKQAVLIRLQDMHSDVTEYIDFIVQKVVNLSITAPRGPIQINLPLRKPLMPVLDRQDEVHVQRVVFDKQSVQYRLPPITAKRLLILAGPNVLNSYDDSLKKFAIKNNVPVIADVLSQSLHTYTIHGIDVLLQAHKINADLKPDLVVRFGKTPVSARVLQWLKEENILTWHVGEDAGVDHTRHIVRAIKMAPHDFLESMHLTLSKNQIDFNQKWLSLPKVIKTRNEMNIITALDDAVPDDTHIFVANSMPIRDMDNFFTGNHTQRIYANRGANGIDGVISSALGMSAVAKQRSVLLTGDLTLFHDMNGLMMAKNYQLPLDIIVINNNGGGIFSFLPQAGAPKYFEQQFGTPLNIDIKKIADLYYIDYHQLNVPEALSQILQTPSKTTRLIEYKSDHQRNRDDHREVLEMLK
modifications: Leuconostoc mesenteroides
notes: variant of Leuconostoc mesenteroides oad with mutations N45T, R249L, D302G, V418A and L476Q
For the molecule B2, in series [3], the “Average Specific Activity” value came out at 0.0121 units/mg and the “Fold Increase in oxaloacetate alpha-decarboxylase specific activity” value (“Fold Increase” below) turned out to be 1.6 fold.

B3: Mutant Oad 3: variant of Leuconostoc mesenteroides oad with mutations R394C, D434G and T511A (protein)
chain: B2 chain with T46N, L250R, G303D, R395C, A419V, D435G, Q477L, T512A
modifications: Leuconostoc mesenteroides
notes: variant of Leuconostoc mesenteroides oad with mutations R394C, D434G and T511A
B3: in series [3], the “Average Specific Activity” value was determined as 0.0222 units/mg and the “Fold Increase” value turned out to be 2.8 fold.

B4: Mutant Oad 2: variant of Leuconostoc mesenteroides oad with mutation T479N (protein)
chain: B2 chain with T46N, L250R, G303D, A419V, Q477L, T480N
modifications: Leuconostoc mesenteroides
notes: variant of Leuconostoc mesenteroides oad with mutation T479N
In the case of B4, in series [3], the “Average Specific Activity” value came to 0.0173 units/mg and the “Fold Increase” value worked out at 2.2 fold.

For the origin of these results see patent publication US8809027B1, “Genetically modified organisms for increased microbial production of 3-hydroxypropionic acid involving an oxaloacetate alpha-decarboxylase” (OPX Biotechnologies, Inc., priority 2009, dated 2014).
